Test results: patent publication US20220119464A1

Molecular target: biotinylated D-form of SARS-CoV-2 HR1 (SARS-CoV-2)

**Q.** How did the Kd turn out when D-form of EK1 (peptide) was run?
**A.** The Kd was 32 nM.
